Measured values from patent US20230174653A1.
Read-outs that look alike come from different tables or passages of the source. One block for each molecule: values may come before it.

Tests used:
[1] = molecular target: T1, B7-H3 (CD276), endogenous on tumor cells (LM7, A549, U373) (UniProt Q5ZPR3); assay: cell-based or functional assay
T1 sequence (looked up): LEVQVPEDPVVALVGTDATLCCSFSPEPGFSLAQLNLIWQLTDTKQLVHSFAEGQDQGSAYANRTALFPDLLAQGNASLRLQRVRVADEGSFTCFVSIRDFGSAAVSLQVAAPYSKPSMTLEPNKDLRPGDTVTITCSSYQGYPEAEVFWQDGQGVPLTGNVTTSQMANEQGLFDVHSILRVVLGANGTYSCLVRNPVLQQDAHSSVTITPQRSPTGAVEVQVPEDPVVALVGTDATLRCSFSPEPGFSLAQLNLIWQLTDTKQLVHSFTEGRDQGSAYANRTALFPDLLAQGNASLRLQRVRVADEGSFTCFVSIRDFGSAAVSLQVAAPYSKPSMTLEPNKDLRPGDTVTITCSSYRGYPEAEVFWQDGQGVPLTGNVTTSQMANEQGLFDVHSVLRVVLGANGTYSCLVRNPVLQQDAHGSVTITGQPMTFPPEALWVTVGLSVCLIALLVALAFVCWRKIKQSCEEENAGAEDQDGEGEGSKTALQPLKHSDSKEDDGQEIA

[2] = molecular target: T1, B7-H3 (CD276), endogenous on tumor cells (LM7, A549, U373); assay: cell-based or functional assay; remark: listed apart in the source

cytolysis of LM7 tumor cells, impedance assay (xCelligence), 1st stimulation, 0.5:1 T-cell to tumor cell ratio [1]: 100%
Molecule: CD8α/4-1BB B7-H3-CAR (second generation B7-H3-CAR with MGA271-derived scFv, CD8α hinge/transmembrane domain, 4-1BB costimulatory domain and CD3ζ), expressed on human T cells

cytolysis of LM7 tumor cells, impedance assay (xCelligence), 1st stimulation [1]: 100%
cytolysis of LM7 tumor cells, impedance assay (xCelligence), 1st stimulation, 0.5:1 T-cell to tumor cell ratio [1]: 100%
Molecule: CD8α/CD28 B7-H3-CAR (second generation B7-H3-CAR with MGA271-derived scFv, CD8α hinge/transmembrane domain, CD28 costimulatory domain and CD3ζ), expressed on human T cells

cytolysis of LM7 tumor cells, impedance assay (xCelligence), 1st stimulation [1]: 100%
Molecule: CD8α/CD28.4-1BB third generation (3G) B7-H3-CAR (4-1BB signaling domain inserted into the CD8α/CD28-CAR), expressed on human T cells

cytolysis of LM7 tumor cells, impedance assay (xCelligence), 1st stimulation, 0.5:1 T-cell to tumor cell ratio [2]: 100%
B1: CD28/CD28 B7-H3-CAR (second generation B7-H3-CAR with MGA271-derived scFv, CD28 hinge/transmembrane domain, CD28 costimulatory domain and CD3ζ), expressed on … (protein)
chain: EVQLVESGGGLVQPGGSLRLSCAASGFTFSSFGMHWVRQAPGKGLEWVAYISSDSSAIYYADTVKGRFTISRDNAKNSLYLQMNSLRDEDTAVYYCGRGRENIYYGSRLDYWGQGTTVTVSSGGGGSGGGGSGGGGSDIQLTQSPSFLSASVGDRVTITCKASQNVDTNVAWYQQKPGKAPKALIYSASYRYSGVPSRFSGSGSGTDFTLTISSLQPEDFATYYCQQYNNYPFTFGQGTKLEIKIEVMYPPPYLDNEKSNGTIIHVKGKHLCPSPLFPGPSKPFWVLVVVGGVLACYSLLVTVAFIIFWVRSKRSRLLHSDYMNMTPRRPGPTRKHYQPYAPPRDFAAYRSRVKFSRSADAPAYQQGQNQLYNELNLGRREEYDVLDKRRGRDPEMGGKPRRKNPQEGLYNELQKDKMAEAYSEIGMKGERRRGKGHDGLYQGLSTATKDTYDALHMQALPPR

cytolysis of LM7 tumor cells, impedance assay (xCelligence), 1st stimulation, 0.5:1 T-cell to tumor cell ratio [2]: 100%
B2: CD28/4-1BB B7-H3-CAR (second generation B7-H3-CAR with MGA271-derived scFv, CD28 hinge/transmembrane domain, 4-1BB costimulatory domain and CD3ζ), expressed on … (protein)
chain: EVQLVESGGGLVQPGGSLRLSCAASGFTFSSFGMHWVRQAPGKGLEWVAYISSDSSAIYYADTVKGRFTISRDNAKNSLYLQMNSLRDEDTAVYYCGRGRENIYYGSRLDYWGQGTTVTVSSGGGGSGGGGSGGGGSDIQLTQSPSFLSASVGDRVTITCKASQNVDTNVAWYQQKPGKAPKALIYSASYRYSGVPSRFSGSGSGTDFTLTISSLQPEDFATYYCQQYNNYPFTFGQGTKLEIKIEVMYPPPYLDNEKSNGTIIHVKGKHLCPSPLFPGPSKPFWVLVVVGGVLACYSLLVTVAFIIFWVKRGRKKLLYIFKQPFMRPVQTTQEEDGCSCRFPEEEEGGCELRVKFSRSADAPAYQQGQNQLYNELNLGRREEYDVLDKRRGRDPEMGGKPRRKNPQEGLYNELQKDKMAEAYSEIGMKGERRRGKGHDGLYQGLSTATKDTYDALHMQALPPR
